Substrate in this series: COC(=O)[C@H]1O[C@H](O[C@H]2[C@H](Oc3ccc([N+](=O)[O-])cc3)OC[C@@H](O)[C@@H]2O)[C@H](O)[C@@H](O)[C@@H]1OC
Kind of series: purified protein. The note with it: 50 mM Na phosphate, pH 6.0, 0.08-0.4 mM substrate, 0.157 μM enzyme. In kind it is biochemical, Schizophyllum commune.

B1: rScGE (recombinant Schizophyllum commune glucuronoyl esterase) (Schizophyllum commune H4-8) (protein)
chain: LSAALLAIAAFANVASAQDCDTPATVSGYSNSALPDPFTFNDGSPVTTAEDWECRRSQILALIQGYESGAAPPEPESVTGTASGNSLSVQVSYGGKSITFNNSITYPSGTAPAEGWPVIIAYEFPSLPIPSNVATLSFQNSAMGKQDSTSSRGQGLFYDLYGSSSNASAMTAWAWGVSRIIDAIESTPDAKLNPAAVGVTGCSRNGKGALMAGALEPRVALTLPQESGSGGDACWRLSRYEEQQGSQVQTATEIVGENCWFSAGFDQYVNNLDSLPYDHHLLAALVAPRGLISYANTDYVWLSGMSSFGCMTAAHAVYEALGVPENHGFEQVGGHSHCQWPSQLDGSLNAFINKFLLGQDVSTDYFESNNQFNGVTWSESQWINWETPTLN
notes: synthetic gene, all 393 residues except start Met (native signal peptide 1-19 in the construct); pGAPZalpha-A alpha-factor secretion, C-terminal myc and His tags; Pichia pastoris SMD1168; glycosylated, 53 kD (46 kD after N-glycosidase F)
Take B1: the Km (as a rule, the substrate concentration at which the rate is half of its maximum) is 250 µM; the kcat (as a rule, the number of substrate molecules converted per active site and unit of time at saturation) is 9.27 s⁻¹.
